This note sets out measurements from paper PMC3274598 (Analytical Biochemistry, 2011).

Assay [1] addresses N-terminal OB-fold domain of RPA70 (RPA70N) (human, UniProt P27694 1-120). In words: fluorescence polarisation.
The target of assay [2] is T1, ATRIP peptide (Homo sapiens, UniProt Q8WXE1).
T1 chain: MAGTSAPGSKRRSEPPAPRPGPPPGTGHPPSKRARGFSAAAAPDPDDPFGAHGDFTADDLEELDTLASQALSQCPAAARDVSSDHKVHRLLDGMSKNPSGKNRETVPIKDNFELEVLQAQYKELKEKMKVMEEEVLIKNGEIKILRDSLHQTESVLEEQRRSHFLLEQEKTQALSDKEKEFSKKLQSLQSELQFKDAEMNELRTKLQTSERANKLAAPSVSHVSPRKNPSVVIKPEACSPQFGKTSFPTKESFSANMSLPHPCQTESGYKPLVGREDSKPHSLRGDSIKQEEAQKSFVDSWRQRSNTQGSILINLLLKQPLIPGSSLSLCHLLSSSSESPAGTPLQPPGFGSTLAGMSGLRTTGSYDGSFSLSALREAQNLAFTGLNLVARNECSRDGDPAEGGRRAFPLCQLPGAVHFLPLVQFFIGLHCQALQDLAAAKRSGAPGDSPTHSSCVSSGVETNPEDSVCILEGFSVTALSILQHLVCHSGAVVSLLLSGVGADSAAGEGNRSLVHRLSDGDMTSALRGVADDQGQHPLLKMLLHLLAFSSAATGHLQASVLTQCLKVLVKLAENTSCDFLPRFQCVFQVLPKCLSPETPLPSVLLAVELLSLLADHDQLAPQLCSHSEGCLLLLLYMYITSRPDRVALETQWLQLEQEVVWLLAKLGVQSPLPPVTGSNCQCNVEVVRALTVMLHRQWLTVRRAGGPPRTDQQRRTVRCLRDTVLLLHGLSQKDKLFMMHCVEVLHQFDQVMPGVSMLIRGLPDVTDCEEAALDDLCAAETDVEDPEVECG
The experiment in a line: NMR.

Assay [3] addresses T2, RAD9 peptide (Homo sapiens, UniProt Q99638).
T2 chain: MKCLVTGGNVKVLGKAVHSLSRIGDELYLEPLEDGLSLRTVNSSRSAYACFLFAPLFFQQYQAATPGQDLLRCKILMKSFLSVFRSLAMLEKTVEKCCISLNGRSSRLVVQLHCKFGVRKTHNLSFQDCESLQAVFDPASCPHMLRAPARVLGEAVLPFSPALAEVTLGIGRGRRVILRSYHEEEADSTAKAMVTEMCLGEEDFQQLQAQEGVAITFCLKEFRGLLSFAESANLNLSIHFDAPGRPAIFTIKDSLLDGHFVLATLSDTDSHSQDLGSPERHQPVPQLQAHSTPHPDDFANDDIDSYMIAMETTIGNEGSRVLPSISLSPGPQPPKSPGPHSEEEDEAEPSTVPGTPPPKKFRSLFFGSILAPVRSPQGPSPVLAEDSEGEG
In words: anisotropy.

Molecule Ac-DFANDDIDSYMIAME-NH2 [RAD9 peptide (Ac-DFANDDIDSYMIAME-NH2)] returned a concentration for half-maximal inhibition (IC50) in assay [1] of 102 ± 13.6 µM.

B1: RPA70N 70N (protein)
chain: MVGQLSEGAIAAIMQKGDTNIKPILQVINIRPITTGNSPPRYRLLMSDGLNTLSSFMLATQLNPLVEEEQLSSNCVCQIHRFIVNTLKDGRRVVILMELEVLKSAEAVGVKIGNPVPYNE
Consider B1, for which the Kd turned out to be 48 µM in assay [2] and 51 µM in assay [3].
